Reference: the DeepSol protein solubility set

Experiment: soluble on expression in E. coli; label from the status in PepcDB or PDB records

Soluble on expression in E. coli, not soluble:
MGSDKIHHHHHHMAKQVVKRTIIGSITNHQQVQDDLDSLGFAASKLWNVARWTTGRIWNETGHIPEDGELKSYLKSHERYSDLHSQSSQRVLEELSEAFTGWYGKRRNGDSKANPPAYRKHNDEHPRSTLTFKGAGFKLDTTNGRLRLSKGENLKEYWSDFVLCDIQIRPDVDLSAIESVQQVRAVWNKQRNEWELHVVCNVTVDIPENSAEKTVGIDLGICNFAALAFENQESELYPLNCLKQDDYYYSKHIARCDDSSSEEATRLHAKKSNRRTHYFHTLSKHIVERCVDENVGVIAIGDLSGIREDEDGEMKDWGKHGNLDLHSWAFDRFTDMLEYKAEEVGISVKRVSEENTSKSCSSCGCERDTNRVERGLYVCNECELVANADVNGAENIRQQVSPNPRSEDRSNGWLAQPSTLLFDKETGVFAPQEQVVS
MGSDKIHHHHHHMALANFIDRAATAASQVLADFHLEDFKAALEKQVVAVAFDDQAASCAEGQATLDLAVRLLARLYPVLAILPLGSAASFQAQALERLAKSINPKVGIRRSGKSATICVVAGVTRPPLRCPTFFMGSDGWAAKLSRTDPVGSGSSLLPYGAGAASCFGAANVFRTIFAAQLTGAELDETIDLSLYSYDKTKAGEAGPIDIPVDLGETHLVGLGAIGHGSLWALARQPGLTGRLHVIDHEAIELSNLQRYVLAGQAEIGMSKAVLAATALRSTAIGVEAHPLTWAEYVARHGDWVFDRVGVALDTAADRLAVQGALPRWIANAWTQEHDLGISRHGFDDGQACLCCMYLPSGKSKDEHHLIAEELGIPEAHEQVKTLLQTNAGVPNDFVVRVATAMAVPFEPLAPFVGQPLRSFYQQAICGGLVFQLSDGSRRVRTVVPMAFQSALAGIMLAAELVKHSAGFPVGPTTSTRVNLLRPLGSRLHDPKAKDSSGRCICSDDDFIAAYRRKYGKSIVQLSDVSAA
MGSDKIHHHHHHMALPEFKIAQLRHFVWVAELKGFHTAAEKACRTQPAISLSIRDLENKLSTILFEKRNAKTSNTELTPFGQYFLPKAKELIAHHDNVAQDMALMSEHKTGHLRLASVPSIACRMLPELLSKFIADVPELHISFYDDNSEAVLRKVEKQQVDIGIASLPHGHEHADITFTPIWEDQLGVVCREDHPFAEMTELHWKELRKQRLIRNGTSRLLEDTEAEPLLSDSQFLISNMLSLIAMLEEGLGITTLPWFAFPKNNSKLRFIPLTTPKIVRHIGIVQLKNKSLSPAAEALANFILKNTNQKKTSDLNPE
MGSDKIHHHHHHMANLPWITIIGLGEDGPEGLPPASRDALAAAEIIMGPARHLALIGPTNAQQVEWPVPFADGIDVLRGHGGRPVAVLVSGDPFWYGAGRAMSKAFGRDAWRAIPVPSVFSLVSSRMGWPIEDTLCIGLHARPFEQLRAKLAPGRRIIATLRDGPAVSGVAHFLRDTGFGGSTLTVCEAVGGPREVVTQVSVAEALKGGFSHPVTVAVELHGTGEVIPLASGRPDALFQTDGVMTKRPVRALTLSALAPRAGEHLWDIGGGSGSIAVEWALADRTCTATVVETRADRVALIRANVESFGLTDQVTVLEGMAPGAMADAPPANAVFIGGGLSPEMLQFVTALPKGTRVVANAVTLEAEAHLAQAQGSFGGDLMRIEIAHAQPLGPKRGWTSAYPVVQWSVTL
MGSDKIHHHHHHMANSHDGNAQVLSYPKHPPKDFSDLAATLIRNGLGRVDAETLERHLEQVGYFRLKGYWYQFLSPSSSCDYKHVLPFRKGTQFQQIWCRYIFDQELRTLVFDGIITFEIYLKSFLAHELSLFGGEFGYTKPEGLPELSFDDYLACINSLRASFTKSNLPYLKHFKRTYKDPLPPYWMIVGCLSYGTLKGYFYQGSPDSVKRKLAAKLHIFNPNTNPEVHGDIKILSNWLETIRQVRNMVAHHDRFWNETSTRIVPKLPKHRSGLHANEWWGNDWDAFRTDSTGPAAFLTMENYLLQQIDGSAWKNKFISLMDRYPEILATEMGFPEDWRSLALWS
MGSDKIHHHHHHMAQMTSQTLYQALWNSADILRSKMDASEYKNYLLGLIFYKYLSDRMVVYASDQLEEKTTDLDKAQQIYTDAYNDKDLHDDLISNVSDEFGYHIQPDLTFTALIDKIDHGTFQLEDLSQSFRDIEQSSEFFSGLFEDVDLYSRKLGATPQKQNQVISDVMKQISTLDLVGQNTNDILGDAYEYLIGQFASDSGKNAGEFYTPQSVSRLITQIAMHGKEDVRGFTIYDPTMGSGSLLLNARRYSNERLSINYFGQELNTSTYNLARMNMILHGVPINNQHLHNADTLDQDWPIEEPTNFDAVVMNPPYSAHWQPSKGTENDPRFVSYGLAPKSKADFAFLLHGYYHLKDTGVMCIVLPHGVLFRGGAEGRIRKALLENGAIDTVIGLPANIFFNTSIPTTVTVLKKSRTTRDVLFIDASKEFEKAKNQNHLTDDNIQKILETCINRKDVDKYAHLASFDEIKENDFNLNIPRYVDTTEPEKPVDVVKVVADIKKNDEEIARLSSELAKNFDDLVANNDEAAKQLTALKELFKNE
MGSDKIHHHHHHMARKKRNPDAEKLAESILNAYQPESVDDMQDALKDVFGPLFEKMLQGELNNHLGYDAHSKEPKEHDNRRNGYGTKTLKTSFGEVAIDVPRDREASFEPELIPKRKRDVSDIEGKVLSMYARGMSQRDIAATVEAIYGFDISHEMISDITDAVLPELEEWQARPLAKCYAFLFVDCMYVTLRENYEAKEYAVYTILGYDLKGNKEILGLWLNQTESKNRWMQVFDELKARGVEDVFFISMDGVSGLEEGAKAIFPSVIVQRCIVHLVRNALRYIPSKDYKEVCRDMKKFYGASSLNAAHAAFGSFQNRWSHYSGAVDVWKRNFAHVEQLFDYGSAIRKIMYTTNAVESVHSSFRKVTKKGAFSNENALLKLLYLRTKELHAKWSGGRIQNWAMVLKQLMINETFSSRMKSMRFTFRNNGRFIQLCVRSKFI
MGSDKIHHHHHHMARRKEHSHDEIRVMAIEAAIALLQQQGVQGLSLRKIASEIGYVPSTLINIFGSYNYLLLAVSEATLQLLMSHLSAVSENDSLRHIIVMAQKYSEFAHSQRQCFKLVFELQLLESEHLPASQGQLIANLFRLIENELALLFPNETIEQQLQMSRVLWGGIHGLTALSLDNKLFADTVSLPALLESHVTGYLQGMGYQREEACC
MGSDKIHHHHHHMARVAINGFGRIGRLVYRIIYERKNPDIEVVAINDLTDTKTLAHLLKYDSVHKKFPGKVEYTENSLIVDGKEIKVFAEPDPSKLPWKDLGVDFVIESTGVFRNREKAELHLQAGAKKVIITAPAKGEDITVVIGCNEDQLKPEHTIISCASCTTNSIAPIVKVLHEKFGIVSGMLTTVHSYTNDQRVLDLPHKDLRRARAAAVNIIPTTTGAAKAVALVVPEVKGKLDGMAIRVPTPDGSITDLTVLVEKETTVEEVNAVMKEATEGRLKGIIGYNDEPIVSSDIIGTTFSGIFDATITNVIGGKLVKVASWYDNEYGYSNRVVDTLELLLKM
MGSDKIHHHHHHMATNSSTEQSLTKKVWNLATTLAGQGIGFTDYITQLTYLLFLKMDAENVEMFGEESAIPTGYQWADLIAFDGLDLVKQYEETLKLLSELDNLIGTIYTKAQNKIDKPVYLKKVITMIDEEQWLIMDGDVKGAIYESILEKNGQDKKSGAGQYFTPRPLIQAMVDCINPQMGETVCDPACGTGGFLLTAYDYMKGQSASKEKRDFLRDKALHGVDNTPLVVTLASMNLYLHGIGTDRSPIVCEDSLEKEPSTLVDVILANPPFGTRPAGSVDINRPDFYVETKNNQLNFLQHMMLMLKTGGRAAVVLPDNVLFEAGAGETIRKRLLQDFNLHTILRLPTGIFYAQGVKANVLFFSKGQPTKEIWFYDYRTDIKHTLATNKLERHHLDDFVSCYNNRVEIYDAENNPQGRWRKYPVDEIIARDKTSLDITWIKPGGEVDDRSLAELMADIKDKSQTISRAVTELEKLLANIEEN
MGSDKIHHHHHHMAYPPTGGDRKTNLTTILRKSSKNLMSKKSDSQFQNLFTSAKSSNWDERLGQIAYRFNREYQRETFELPTEVQAMPIFREWIGGSFSGRIASPFWEIAQPQKNQHCLDIGCGISFLIYPWRDWQAFFHGQEISNVARDTLNSRGPQLNSKLFKGVELGAAHQLNYSPEQFDLAIATGFSCYFPLEYWNAVLAEVKRVLKPGGHFVFDILNPEQPLAEDWAVLETYLGAEVFLEPVAGWEKAIKAAGAKIVTQKSGELFQMYKVRF
MGSDKIHHHHHHMDDDSNQKPLFHMALGVLTSLTPPQHHIELVDEHFHDKINYDGDYDMVGITSRTIEATRAYEIADEFRKRGKTVVLGGLHISFNPEEAAAHADCIVVGEADNLWTTLLDDVANNRLKERYDSKDFPPVKAITPLDYARIAKASKRTKVDGTKSIPIYVTRGCPFNCSFCVTPNFTGKQYRVQDPKLLKHQIEEAKKYFFKANGKNSKPWFMLTDENLGINKKKLWESLDLLKECDITFSVFLSINFLEDPTTVKKLVDAGCNFVLAGLESIKQSTLEAYNKGHVNSAEKYSKIIEDCRKAGLNIQGNFLFNPAIDTFEDIDELVQFVKKNHIFMPIFQIITPYPGTQMYHEYRESGLITIEDWEKYNALHLVIKSDRYEPLLFQYKVLKSYVEVYTWKEILLRTLYNPRKLINLVTSIAFKKHLAAQLKAFERNHKMNPAMLSGVKPVMNG
MGSDKIHHHHHHMDEIARFLRSYPPFDRLPEQVVHQIAGELQIEFVRAGQTILTKGGEPSSFLYIVCKGSVDLLRSEDQVVDTLGPGEAFGHPSLIRGQPPLVTVRAHTDTLLYLLPGAIFHRLRAEQPQFAAFFAASVIERLGYALQSRQSESNPALFQTRLRDLVARPPVSISPEATVGDAARLMRDERISSLIVEHTPIGIITDRDLRNRVLAEGLPDTTPVRQVMSAPATTIAADALAFEGLLLMLERGIHHLPLVEGDRVVGVVTHTDILRRQSNSPLFLPRLLQRATSLADLRRYTDQVADAVFTLTAAGARVSDIGRVVAVAHDALLQRLIHDAEAQLGPPPVPYAWLVLGSEGRYEQTLRTDQDNALVYDDSASADDVRYFEQLATLVVDWLVECGFPRCPGNIMATNPEWRQSLATWQRYFHRWIEIPDEESLLRIAIFFDYRQVYGQLPAEPVLRTITQHAAEHRIFMARLARAALRQPAPLTFFRQVALERRGDPRDL
MGSDKIHHHHHHMDEIEKSLQNWGQQLENVHLPRWHELPDIELYMDQVITLIEKYLSPLITLEKHTLLTSSMVNNYVKHGLIPAPVKKRYNQKHLAFLIAITLLKQVLTLPEIKQGILFQGATVGIREAYNLFCQEQERAIYVIAAQAQEKEVQAKSQEPMGIEYLAVKAATMSFATKMFSEKVIELEQEYLKEMDEMTHE
MGSDKIHHHHHHMDGKVMAGTRIEKVMANIRQRITSRSLVPGARLPSVRALAKTMQLSTSTIVEAYDRLVADGTISSRPGSGFFVAGPLAPLSLADIEPRLDRAVDPLWVSRQALDDGSALAKPGCGWLPASWMPQEALRRAMRGLARADDALLTDYGSPMGLLPLRQLLSRRLAEHGVQAGASQIMLTDSGTQAIDLLCRFLLQPGDTVVVDDPCYFNFHALLRAHRVKIVGVPYTPAGPDLPLFEQALKEHQPRLYITNSAIHNPTGARLSAVSAHRLLMLAEQPGLTIIEDDIFADFETQAAPRLAAFDGLNRVVQIGSFSKTLSASVRCGFIAAPRAWVEALTDLKIATAFGGTHFSAALVLSLLTDGSYRKHVEALRQRLAAAVPEAATRLRSIGCMPWIEPQAGMFLWCRLPEGTDAADVAQRALARQVVLAPGNVFSSSQNASGFMRFNVSQMVGPQVMTVLADALR
MGSDKIHHHHHHMDHLPPLRLLVTFEAISRHGSMRDAAQRLNVTQPAVSQALKALEDHVGVALFDRSVRPARLTDAGEMLSRAVREGLGRIAATLEDIRALHAIGERQVTVSCTLGMATYWLMPKLPMFYADYPELTVNVQAPATDLPVLSPGIDVALRYGRGGWREGRTEKLFAEVICPVGAPALVERLLAEGATLAEAPLIHVRNPHNDHWAGWEDYLQARGIQRPRGGGQIFNNYVQAAQAIYDGRGLMLGWRSITGQAERDGALRAWPDGALDLGTSYFVTMPTTPSQDTLLFVDWVRKAAATV
